Experimental data reported in patent publication US20100068742.

T1: chicken maltose binding protein-MYPT (amino acids 714-1004), Q90623
T1 chain: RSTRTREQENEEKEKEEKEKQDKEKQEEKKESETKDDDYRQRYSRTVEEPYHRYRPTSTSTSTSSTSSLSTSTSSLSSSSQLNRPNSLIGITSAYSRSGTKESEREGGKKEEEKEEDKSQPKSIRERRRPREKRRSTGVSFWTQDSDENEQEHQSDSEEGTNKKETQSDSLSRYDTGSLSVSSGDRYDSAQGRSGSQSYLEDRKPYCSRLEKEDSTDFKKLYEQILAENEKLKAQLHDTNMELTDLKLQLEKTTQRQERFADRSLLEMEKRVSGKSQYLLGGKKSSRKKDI

T2: Nictide (RLGWWRFYTLRRARQGNTKQR)
T2 chain: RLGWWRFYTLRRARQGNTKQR


Legend:
[1] = molecular target: GST-ezrin (amino acids 1-586), P15311
GST-ezrin (amino acids 1-586), P15311, sequence (P15311 whole entry, the tested form may be a part): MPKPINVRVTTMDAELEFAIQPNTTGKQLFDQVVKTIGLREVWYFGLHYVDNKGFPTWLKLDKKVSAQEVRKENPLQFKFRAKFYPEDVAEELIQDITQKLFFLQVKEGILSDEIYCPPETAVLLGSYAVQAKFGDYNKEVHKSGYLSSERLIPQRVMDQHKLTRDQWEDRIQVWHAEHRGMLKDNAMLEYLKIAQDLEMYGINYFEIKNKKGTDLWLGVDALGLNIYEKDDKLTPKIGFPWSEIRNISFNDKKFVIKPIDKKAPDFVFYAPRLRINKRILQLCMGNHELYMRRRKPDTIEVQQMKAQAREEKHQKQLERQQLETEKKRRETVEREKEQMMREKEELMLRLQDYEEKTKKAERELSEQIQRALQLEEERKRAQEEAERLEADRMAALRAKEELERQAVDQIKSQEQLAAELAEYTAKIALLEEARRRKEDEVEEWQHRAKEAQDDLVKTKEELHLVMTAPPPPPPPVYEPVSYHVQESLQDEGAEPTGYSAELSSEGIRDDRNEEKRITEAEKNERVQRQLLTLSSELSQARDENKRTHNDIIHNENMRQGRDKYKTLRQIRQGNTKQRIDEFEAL

[2] = molecular target: LRRKtide with +1Leu mutated to Ala
[3] = molecular target: LRRKtide with -2Tyr mutated to Arg
[4] = molecular target: T1, chicken maltose binding protein-MYPT …
[5] = molecular target: T2, Nictide (RLGWWRFYTLRRARQGNTKQR)

Row | Protein | protein substrate phosphorylation (32P autoradiography) [1] | peptide phosphorylation [2] | fold decrease of Km against wild type LRRKtide [3] | fold increase of Vmax against wild type LRRKtide [3] | protein substrate phosphorylation (32P autoradiography) [4] | Km of peptide phosphorylation [5] | fold decrease of Vmax against LRRK2[G2019S] [5]
1 | rat ROCK2 (amino acids 2-543) (protein) SRPPPTGKMPGAPEAAAGDGAGAGRQRKLEALIRDPRSPINVESLLDGLNSLVLDLDFPALRKNKNIDNFLNRYEKIVKKIRGLQMKAEDYDVVKVIGRGAFGEVQLVRHKASQKVYAMKLLSKFEMIKRSDSAFFWEERDIMAFANSPWVVQLFCAFQDDRYLYMVMEYMPGGDLVNLMSNYDVPEKWAKFYTAEVVLALDAIHSMGLIHRDVKPDNMLLDKHGHLKLADFGTCMKMDETGMVHCDTAVGTPDYISPEVLKSQGGDGYYGRECDWWSVGVFLFEMLVGDTPFYADSLVGTYSKIMDHKNSLCFPEDTEISKHAKNLICAFLTDREVRLGRNGVEEIKSASFFKNDQWNWDNIRETAAPVVPELSSDIDSSNFDDIEDDKGDVETFPIPKAFVGNQLPFIGFTYFRENLLLSDSPPCRENDAIQTRKSEESQEIQKKLYALEEHLSSEVQAKEELEQKCKSINTRLEKTAKELEEEITFRKNVESTLRQLEREKALLQHKNAEYQRKADHEADKKRNLENDVNSLKDQLEDL | but barely ezrin | abolished phosphorylation by ROCK2 | decreased the Km value over 60-fold | increased the Vmax over 5-fold | ROCK2 phosphorylated MYPT |  | 
2 | GST-LRRK2 1326-2527 [wild type] (protein) LKKAVPYNRMKLMIVGNTGSGKTTLLQQLMKTKKSDLGMQSATVGIDVKDWPIQIRDKRKRDLVLNVWDFAGREEFYSTHPHFMTQRALYLAVYDLSKGQAEVDAMKPWLFNIKARASSSPVILVGTHLDVSDEKQRKACMSKITKELLNKRGFPAIRDYHFVNATEESDALAKLRKTIINESLNFKIRDQLVVGQLIPDCYVELEKIILSERKNVPIEFPVIDRKRLLQLVRENQLQLDENELPHAVHFLNESGVLLHFQDPALQLSDLYFVEPKWLCKIMAQILTVKVEGCPKHPKGIISRRDVEKFLSKKRKFPKNYMSQYFKLLEKFQIALPIGEEYLLVPSSLSDHRPVIELPHCENSEIIIRLYEMPYFPMGFWSRLINRLLEISPYMLSGRERALRPNRMYWRQGIYLNWSPEAYCLVGSEVLDNHPESFLKITVPSCRKGCILLGQVVDHIDSLMEEWFPGLLEIDICGEGETLLKKWALYSFNDGEEHQKILLDDLMKKAEEGDLLVNPDQPRLTIPISQIAPDLILADLPRNIMLNNDELEFEQAPEFLLGDGSFGSVYRAAYEGEEVAVKIFNKHTSLRLLRQELVVLCHLHHPSLISLLAAGIRPRMLVMELASKGSLDRLLQQDKASLTRTLQHRIALHVADGLRYLHSAMIIYRDLKPHNVLLFTLYPNAAIIAKIADYGIAQYCCRMGIKTSEGTPGFRAPEVARGNVIYNQQADVYSFGLLLYDILTTGGRIVEGLKFPNEFDELEIQGKLPDPVKEYGCAPWPMVEKLIKQCLKENPQERPTSAQVFDILNSAELVCLTRRILLPKNVIVECMVATHHNSRNASIWLGCGHTDRGQLSFLDLNTEGYTSEEVADSRILCLALVHLPVEKESWIVSGTQSGTLLVINTEDGKKRHTLEKMTDSVTCLYCNSFSKQSKQKNFLLVGTADGKLAIFEDKTVKLKGAAPLKILNIGNVSTPLMCLSESTNSTERNVMWGGCGTKIFSFSNDFTIQKLIETRTSQLFSYAAFSDSNIITVVVDTALYIAKQNSPVVEVWDKKTEKLCGLIDCVHFLREVMVKENKESKHKMSYSGRVKTLCLQKNTALWIGTGGGHILLLDLSTRRLIRVIYNFCNSVRVMMTAQLGSLKNVMLVLGYNRKNTEGTQKQKEIQSCLTVWDINLPHEVQNLEKHIEVRKELAEKMRRTSVE | LRRK2 phosphorylated ezrin |  |  |  | did not phosphorylate MYPT | a similar Km | ~2-fold lower Vmax
